Series [1] concerns the target cathepsin L (Homo sapiens, UniProt P07711). The experiment in a line: Enzymatic digestion test, cathepsin L. The conditions noted are these: 3 ug peptide, cathepsin L 100, 200, 800 ng, 37° C. 4 hours. Format: biochemical. As for the experimental part:
3 ug of synthesized mdhFas-1-MMPsubstrate structure modified protein, together with MMP1 (5 ng, 10 ng and 50 ng), MMP2 (100 ng, 200 ng and 800 ng), MMP3 (10 ng, 50 ng and 100 ng), cathepsin D (5 ng, 10 ng and 50 ng), cathepsin L (100 ng, 200 ng and 800 ng), and cathepsin K (10 ng, 50 ng and 100 ng), was mixed with enzyme buffer (150 mM NaCl, 5 mM. CaCl2, 20 mM Tris-HCl pH7.5), and reacted at 37° C. for 4 hours. The resultant product was subjected to electrophoresis through 15% polyacrylamide gel, transferred to a Nitrocellulose Membrane (Schleicher & Schuell), blocked at room temperature for 1 hour with TBST solution containing 3% BSA (20 mmole/L Tris-HCl, 137 mmole//l NaCl, 0.1% Tween-20), washed TBST solution three times (each for 10 minutes), and reacted with primary antibody (anti-Histidine or anti-Bigh3) for 1 hour. The resultant product was washed with TBST solution three times (each for 10 minutes), reacted with a secondary antibody conjugated to horseradish peroxidase (HRP) for 1 hour, washed TBST solution three times (each for 10 minutes), and visualized by ECL (Amersham Biosciences, UK) so as to detect the change in the amount of mdhFas-1-MMPsubstrate-RGD structural peptide.

In series [2] the test system is NIH3T3. Briefly: βig-h3-mediated cell migration test (transwell), NIH3T3. Format: cell-based, mouse. The conditions noted are these: 7 hours. As for the experimental part:
In the lower compartment of a transwell filter having an 8 um hole size allowing cells to be migrated, βig-h3 was cultured at 4° C. for 12 to 14 hours and coated. In DMEM+0.5% BSA culture medium, NIH3T3 was introduced, and administered with MFK23, MFK24 or MFK25 at concentrations, followed by mixing. The resultant mixture was cultured at 37° C. for 30 minutes, inoculated into the upper chamber of the coated well, and cultured for 7 hours at 37° C. Then, the cells migrated to the lower compartment of the filter were fixed by paraformaldehyde, and strained by a crystal violet. The cells […] remaining in the upper chamber were wiped out and the number of cells migrated to the lower compartment was microscopically counted.

The test system of series [3] is foot tissue of CIA mouse (Synovial membrane, cartilage, bones; CD31, ICAM-1). Briefly: Histologic and immunohistochemistry test on foot tissue of CIA mouse. The note with it: CIA mouse foot tissue, 50th day, FIGS. 18 and 20. Format: in vivo. As for the experimental part:
In order to determine the action mechanism of an arthritis therapeutic effect in a CIA model, on the 50th day following the second injection of the bovine type 2 collagen (after 4 weeks from the onset (the 23rd day) of arthritis following the second injection of the bovine type 2 collagen), foot tissues of treatment groups were separated and subjected to histologic analysis. Then, in the tissues, a change in the expression of inflammatory mediators was examined.
A tissue sample was prepared by the following process. Skin on the foot tissue was removed. Then, the tissue was fixed in 10% formalin solution for 2 days, and demineralized in 10% EDTA solution. The demineralized tissue was subjected to a dehydrating process and a clearing process, paraffin-embedded, and was made into a fragment with a thickness of 3 um by a microtome. The tissue fragment was deparaffinized and re-dehydrated by 100% xylene and ethanol, and then non-specific peroxidase within the tissue was blocked by a solution of 0.3% hydrogen peroxide dissolved in 100% methanol.
In order to carry out an immunohistochemistry test, binding of non-specific protein was blocked by 5% BSA. Then, the tissue was cultured, together with each primary antibody (as endothelial cell markers, an antibody to CD31, and an antibody to ICAM-1 (intercellular adhesion molecule-1)), at 4° C. for 12 to 14 hours, and washed with washing buffer (0.1% BSA, 0.2% gelatin, 0.05% saponin). It was cultured together with a secondary antibody labeled with biotin at room temperature for 30 minutes, was washed, reacted with Vectastatin ABC kit (Vector Laboratories, U.S.), and was mounted with Eukitt mounting media (Fluka, Germany) for observation.

The test system of series [4] is collagen-induced arthritis (CIA) mouse model. The experiment in a line: Arthritis therapeutic effect in CIA mouse (clinical arthritis index). Format: in vivo. On the procedure: A CIA mouse model having the similar characteristic to that of human rheumatoid arthritis was prepared according to the description in a known literature (Protocol for the successful induction of collagen-induced arthritis (CIA) and collagen antibody-induced arthritis (CAIA) in mice. Chondrex, Redmond, Wash.): Bovine type 2 collagen 100 ug was mixed with Freund's complete adjuvant, and hypodermically inoculated into the tail of the mouse. After 3 weeks, bovine type 2 collagen 100 ug was mixed with Freund's incomplete adjuvant, and inoculated again into the tail of the mouse. Then, the mouse was used in the experiment.
In order to find out the therapeutic effect of arthritis in a CIA model, for four weeks from the onset (the 23rd day) of arthritis following the second injection of the bovine type 2 collagen, MFK23 or MFK24 was daily injected into the abdominal cavity in doses of 0.1 mg/kg, 1 mg/kg, 10 mg/kg and 30 mg/kg. As a control group, the same amount of PBS was injected into the abdominal cavity. From the 23rd day to the 50th day, by using a Clinical arthritis index, the severity of arthritis was daily determined. The determination was based on the following data.
0; no symptom, 1; edema in one articulation or light edema, 2; severe edema in 2 or more articulations, 3; severe edema in most articulations, 4; severe edema in the whole of legs.

Series [5] is described as follows: Toxicity test in CIA mouse (weight, serologic test, blood test). The conditions noted are these: for body weight change compared to control group: 22nd day vs 48th day; for overall toxicity: serologic test, blood test, weight; for ALT / AST / BUN / Crea / PLT / RBC / WBC: CIA model, 4 weeks.
Description: On the 48th day, a serologic test and a blood test were carried out.

Numbering of substitutions follows the chain as printed. Entries after “also recorded” stand apart in the source; their conditions may differ.

cathepsin L, sequence (P07711 114-333, species assumed): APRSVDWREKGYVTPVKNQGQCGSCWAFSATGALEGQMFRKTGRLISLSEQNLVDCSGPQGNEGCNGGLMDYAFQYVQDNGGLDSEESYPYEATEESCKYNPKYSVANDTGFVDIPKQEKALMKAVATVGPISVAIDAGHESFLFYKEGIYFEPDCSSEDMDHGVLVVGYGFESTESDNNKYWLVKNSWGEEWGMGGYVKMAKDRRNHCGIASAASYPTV

B1: MFK23: fusion peptide having sequential links of mdhFas-1, MMP2 substrate GPLGVRG (SEQ ID NO: 5), and QERGDSLA (SEQ ID NO: 10) (protein)
chain: QAMPPEELNKLLANAKELTNILKYHIGDEILVSGGIGALVRLKSLQGDKLEVSSKNNVVSVNKEPVAETDIMEFGPLGVRGVDGQERGDSLAGLE
modifications: MFK23
Consider B1, for which the “cleavage through treatment with cathepsin L” value in series [1] is on record as “not cleaved”. Moreover, in series [2], the βig-h3-mediated cell migration entry was “inhibited the cell migration; also recorded: concentration-dependently inhibited”. In series [3], the “deformation of cartilage and bones (HE stain)” value was “reduced the deformation of cartilage and bones”; the “proliferation of a Synovial membrane cell (HE stain)” value is “inhibited the proliferation of a Synovial membrane cell”. Besides, in series [4] (daily into the abdominal cavity), the “arthritis inhibiting effect (clinical arthritis index), in words” value is reported as “excellent effect on arthritis”. Further, in series [5] (CIA mouse), the “death during the therapy period” value was “No mouse died”; the “body weight change compared to control group” value was “maintained similarly to that of the control group”; the overall toxicity entry is “a low toxicity and a low dangerousness”.

B2: MFK24: fusion peptide having sequential links of mdhFas-1, MMP1 substrate GPQGIAG (SEQ ID NO: 6), and QERGDSLA (SEQ ID NO: 10) (protein)
chain: B1 chain with L77Q, V79I, R80A
modifications: MFK24
With B2, the “cleavage through treatment with cathepsin L” value in series [1] was “not cleaved”. The βig-h3-mediated cell migration entry in series [2] was “inhibited the cell migration; also recorded: concentration-dependently inhibited”. For the same molecule, in series [3], the “deformation of cartilage and bones (HE stain)” value is “reduced the deformation of cartilage and bones”; the “proliferation of a Synovial membrane cell (HE stain)” value was “inhibited the proliferation of a Synovial membrane cell”. Moreover, the “concentration relative to conventional mdhFas-1 or MFK12 that shows a higher arthritis inhibiting effect” value in series [4] was 1/100. Besides, the “arthritis inhibition (clinical arthritis index)” value in series [4] (0.1 mg/kg daily into the abdominal cavity, four weeks) is listed as “about 70%”. In series [5] (0.1 mg/kg), this molecule had an ALT of 37.8 ± 7.1 U/L, an AST of 224.3 ± 13 U/L, a BUN of 19.0 ± 3.3 mg/dL and a Crea of 0.54 ± 0.10 mg/dL. In addition, in series [5] (0.1 mg/kg), the PLT is 1280.2 ± 284 ×10^3/ul, the RBC is listed as 12.3 ± 0.7 ×10^6/ul and the WBC was 5.0 ± 1.2 ×10^3/ul. Moreover, in series [5] (1 mg/kg), the ALT worked out at 40.6 ± 7.2 U/L, the AST is given as 270.5 ± 17 U/L, the BUN is 21.2 ± 3.4 mg/dL and the Crea is recorded as 0.54 ± 0.14 mg/dL. In addition, in series [5] (1 mg/kg), the PLT is 1155.3 ± 184 ×10^3/ul, the RBC is 10.9 ± 1.7 ×10^6/ul and the WBC is reported as 3.7 ± 0.5 ×10^3/ul. For the same molecule, in series [5] (10 mg/kg), the ALT was found to be 43.6 ± 14.2 U/L, the AST turned out to be 222.0 ± 25 U/L, the BUN is 20.4 ± 4.4 mg/dL and the Crea was 0.54 ± 0.11 mg/dL. Moreover, in series [5] (10 mg/kg), the PLT was 1050.1 ± 359 ×10^3/ul, the RBC is reported as 11.4 ± 1.5 ×10^6/ul and the WBC is 5.0 ± 1.8 ×10^3/ul. In series [5] (30 mg/kg), this molecule came in with an ALT of 28.9 ± 8.2 U/L, an AST of 286.6 ± 48 U/L, a BUN of 12.4 ± 4.8 mg/dL and a Crea of 0.33 ± 0.02 mg/dL. For the same molecule, in series [5] (30 mg/kg), the PLT is recorded as 674.7 ± 111 ×10^3/ul, the RBC is 12.4 ± 0.1 ×10^6/ul and the WBC is given as 6.1 ± 1.1 ×10^3/ul. Further, in series [5] (CIA mouse), the “death during the therapy period” value was “No mouse died”; the “body weight change compared to control group” value was “maintained similarly to that of the control group”; the overall toxicity result is “a low toxicity and a low dangerousness”. Besides, in series [5] (CIA mouse, 48th day), the “bilirubin and creatine compared to control group” value is listed as “no significant difference”; the “erythrocytes, leukocytes, platelets and liver function values (AST and ALT) compared to control” value was “did not show abnormalities”.

Source of the values: US9605038B2, “Fusion peptide comprising dhFas-1 domain and MMP substrate and use thereof for preventing and treating rheumatoid arthritis” (Kyungpook National University Industry-Academic Cooperation …, priority 2010, dated 2017).
